In one data set the target is T1, DEP1 (AtDEP1) (Arabidopsis thaliana, UniProt Q9FN41).
T1 construct: gene At5g53850; C-terminal His6-tag, from cDNA clone, expressed in E. coli BL21 CodonPlus (DE3)-RIPL; class II aldolase fused to HAD phosphatase domain
T1 sequence (Q9FN41 2-507): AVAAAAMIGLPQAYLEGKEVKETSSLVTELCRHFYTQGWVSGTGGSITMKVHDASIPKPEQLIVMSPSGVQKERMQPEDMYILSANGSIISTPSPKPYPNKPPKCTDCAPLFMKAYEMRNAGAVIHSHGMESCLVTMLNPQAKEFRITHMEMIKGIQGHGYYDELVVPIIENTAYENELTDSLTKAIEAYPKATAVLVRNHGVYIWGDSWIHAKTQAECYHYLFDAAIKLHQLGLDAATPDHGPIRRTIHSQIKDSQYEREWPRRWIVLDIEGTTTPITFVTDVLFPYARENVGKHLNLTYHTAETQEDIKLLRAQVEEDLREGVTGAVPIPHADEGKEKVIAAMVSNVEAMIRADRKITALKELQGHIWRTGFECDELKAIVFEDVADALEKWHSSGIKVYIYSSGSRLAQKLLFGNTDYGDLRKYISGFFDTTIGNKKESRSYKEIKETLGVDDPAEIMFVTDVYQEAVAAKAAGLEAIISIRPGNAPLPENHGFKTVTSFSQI
The experiment in a line: coupled glycerol-3-phosphate dehydrogenase NADH assay. Type of data set: biochemical. The note with it: aldol cleavage, 500 µM dRu1P, pH 8.2, 21 °C.

Another data set deals with DrdA (aldolase) (Bacillus thuringiensis, UniProt P0DTQ0). The settings on record: tag-free protein, Mn2+ site, co-crystallised with 20 equivalents DHAP, pH 7.5.
For data set [1], the target named is B. thuringiensis 5-deoxyribose disposal isomerase DrdI, His6-tagged (Bacillus thuringiensis HD73-20 (BGSC 4D22)). The experiment in a line: SEC; native molecular mass estimated on a Superdex 200 column, eluted with 50 mM HEPES-KOH, 50 mM KCl, pH 7.5, 10% glycerol.
Substrate in data set [2]: C[C@H]1O[C@H](OP(=O)(O)O)[C@H](O)[C@@H]1O
The experiment in a line: coupled DrdA/glycerol-3-phosphate dehydrogenase NADH assay. Type of data set: biochemical, Bacillus thuringiensis. The settings on record: pH 8.0, 21 °C. An excerpt: coupled DrdA/glycerol-3-phosphate dehydrogenase NADH assay on DrdI (isomerase)

Substrate in data set [3]: Nc1ncnc2c1ncn2[C@@H]1O[C@H](COP(=O)(O)OP(=O)(O)OP(=O)(O)O)[C@@H](O)[C@H]1O
The experiment in a line: coupled pyruvate kinase/lactate dehydrogenase NADH assay. Type of data set: biochemical, Bacillus thuringiensis. The settings on record: co-substrate 5-deoxyribose (500 µM), Mg2+, pH 8.0, 21 °C. An excerpt:
coupled pyruvate kinase/lactate dehydrogenase NADH assay on DrdK (kinase)

Data set [4] deals with the molecule itself. The experiment in a line: SEC; native molecular mass estimated on a Superdex 200 column, eluted with 50 mM HEPES-KOH, 50 mM KCl, pH 7.5, 10% glycerol.
Data set [5] concerns the molecule itself. The experiment in a line: crystal structure; X-ray, 1.55 Å, space group P42(1)2, one monomer per asymmetric unit; crystals from 200 mM NaCl, 28% PEG-3350, 100 mM HEPES-KOH pH 7.5, 20 °C.

Turning to `C[C@@H](O)[C@@H](O)C(=O)COP(=O)(O)O` [5-deoxyribulose 1-phosphate], at DEP1 (AtDEP1), the “coupled glycerol-3-phosphate dehydrogenase NADH assay” value is reported as “Recombinant DEP1 showed aldolase activity towards 5-deoxyribulose-1-phosphate”. As to `O=C(CO)COP(=O)(O)O` [dihydroxyacetone phosphate], on DrdA (aldolase), the “X-ray crystal structure of complex” value is “we solved the co-complex structure of DHAP bound to DrdA”.

What is called stoichiometry N is the number of molecules, sites or subunits per partner or assembly. For “B. thuringiensis 5-deoxyribose disposal isomerase DrdI, His6-tagged (enzyme)”, the stoichiometry N in data set [1] was 2.

B1: DrdI (isomerase) (Bacillus thuringiensis serovar kurstaki str. HD73) (protein)
chain: MMEEQLIPIQWKDDALVLLDQTLLPNEIVYESFKTAESVWDAIQVMKVRGAPVIGVSAAYGVYLGVKEFAESTEEGFMDEVRKVCTYLATSRPTAVNLFWALERMESVAADNIHLSISQLKDRLLEEAKEIHREDEEINRQIGEHALTLFHDGMGVLTHCNAGALATTKYGTATAPMYLAKEKGWDLKIFSDETRPRLQGSTLTALELQRAGIDVTVITDNMAAMVMSQGKIDAVIVGCDRVAANGDIANKIGTLGVSILAKYYNIPFYVAAPTPTIDLKTPTGKEIPIEERDASEVINRFGQYSAPKESKVYNPAFDVTPHENVTAIITEKGIVKAPFTENLKKIFQ
notes: full length, N-terminal His6-tag with short linker, expressed in E. coli BL21 CodonPlus (DE3)-RIPL; dimer
In general, Km refers to the substrate concentration at which the rate is half of its maximum. As a reminder, the kcat is the number of substrate molecules converted per active site and unit of time at saturation. What is called kcat/Km is the turnover number divided by the Michaelis constant. Regarding B1, in data set [2], the Km is listed as 22 ± 7 × 10^3 µM, the kcat is 3.5 ± 0.7 s⁻¹ and the kcat/Km came to 160 ± 60 M⁻¹ s⁻¹.

B2: B. thuringiensis 5-deoxyribose disposal kinase DrdK, His6-tagged (enzyme, UniProt P0DTQ2 1-409, looked up)
chain: MSKFTKYFLMEASDVIAYVKEKLSKFEHAKGLKCKEIGDGNLNYVFRVWDKKENMSVIVKQAGDTARISDEFKLSTNRIRIESDVLQLENELAPGLVPKVYLFDSVMNCCVMEDLSNHTILRTALINHQIFPQLADDLTTFMVNTLLLTSDVVMNHKEKKELVKNYINPELCEITEDLVYSEPFTNHNKRNELFPLNEGWIREHIYSDKELRMEVAKRKFSFMTNAQALLHGDLHTGSVFVRDDSTKVIDPEFAFYGPMGYDVGNVMANLMFAWVNADATMPPGAEKDTYMDWLQTTMVEVIDLFKKKFLDAWDIHVTEIMAKEEGFNEVYLQSVLEDTAAVTGLELIRRIVGLAKVKDITCIENEEARARAEQICLKVAKSFILRANQYRTGRSFVETLKEQSMHYAE
notes: Cloned into pET28b (XbaI/XhoI amplicon into NheI/XhoI); No step that removes the tag is described; also called 5-deoxyribose kinase; source: E. coli BL21 CodonPlus (DE3)-RIPL, purified (Ni-NTA)
Regarding B2, in data set [3], the Km came out at 216 ± 63 µM, the kcat is 17.1 ± 2.5 s⁻¹ and the kcat/Km amounted to 79000 ± 26000 M⁻¹ s⁻¹. Moreover, the “stoichiometry N” value in data set [4] was 2.

B3: B. thuringiensis aldolase DrdA, tag-free variant (enzyme)
chain: MLLQKEREEIVAYGKKMISSGLTKGTGGNISIFNREQGLVAISPSGLEYYETKPEDVVILNLDGEVIEGERKPSSELDMHLIYYRKREDINALVHTHSPYAKTIASLGWELPAVSYLIAFAGPNVRCAPYETFGTKQLADAAFEGMIDRRAVLLANHGLIAGANNIKMAFTVAEEIEFCAQIYYQTKSIGEPKLLPEDEMENLAKKFEGYGQQ
notes: also called tag-free version; His-tag-free protein; source: E. coli BL21(DE3), purified (ammonium sulfate precipitation, MonoQ anion exchange, Superdex 200 SEC)
With B3, in data set [5], the “stoichiometry N” value was 4.
